Among the data in publication doi:10.1101/2020.10.21.349639 (bioRxiv, 2020) are Kd values, retold here.

As usually defined, the Kd is the free concentration of one partner at which half of the binding sites on the other are occupied at equilibrium, for simple one-to-one binding. Low values mean a tighter complex, high ones a looser complex.

In the assay the target is T1, NorC (wild type) (Staphylococcus aureus subsp. aureus COL …).
T1 chain: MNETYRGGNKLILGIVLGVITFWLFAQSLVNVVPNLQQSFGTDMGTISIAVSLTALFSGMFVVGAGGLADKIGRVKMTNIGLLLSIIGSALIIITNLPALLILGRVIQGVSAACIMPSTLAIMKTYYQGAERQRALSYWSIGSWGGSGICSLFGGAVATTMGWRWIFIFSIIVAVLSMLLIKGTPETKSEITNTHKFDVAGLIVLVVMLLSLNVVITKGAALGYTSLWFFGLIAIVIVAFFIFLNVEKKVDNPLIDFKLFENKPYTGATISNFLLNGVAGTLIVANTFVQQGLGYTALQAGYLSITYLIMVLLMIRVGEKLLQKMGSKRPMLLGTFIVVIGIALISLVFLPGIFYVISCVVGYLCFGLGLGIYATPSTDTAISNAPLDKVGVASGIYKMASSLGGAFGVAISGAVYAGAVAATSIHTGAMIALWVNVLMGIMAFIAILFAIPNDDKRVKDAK
Description: ITC.

B1: single-domain Indian camelid antibody (ICab), Zn2+-bound (VHH)
VHH: QVQLEESGGGSVQAGGSLRLSCAASGYMYSTYSTYCMGWFRQAPGKEREGVAFIKRGDHSTYYTDSVKGRFTISQDSAKNTVSLQMNNLKPEDTAIYYCAADFAHSFLLSVHSGAGQYSYWGQGTQVTVSS
As for B1, binding was characterised by a dissociation constant (Kd) of 38 ± 5 nM.
